Data published in US20200199241A1 (Chugai, published 2020).
Residue numbers refer to the chain shown, from its start. Names may count otherwise.

T1: human FcγRIIa(R) (human, UniProt P12318 36-217)
T1 construct: also called FcgRIIaR; hFcgRIIa(R)
T1 chain: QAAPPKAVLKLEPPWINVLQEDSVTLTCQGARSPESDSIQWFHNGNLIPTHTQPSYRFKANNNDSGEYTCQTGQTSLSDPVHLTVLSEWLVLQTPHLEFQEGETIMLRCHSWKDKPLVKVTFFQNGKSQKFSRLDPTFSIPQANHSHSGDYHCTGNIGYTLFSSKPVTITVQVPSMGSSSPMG

T2: human FcγRIIa(H) (human, UniProt P12318 36-217)
T2 construct: also called FcgRIIaH; hFcgRIIa(H)
T2 sequence: T1 chain with R133H

T3: human FcγRIIb (human, UniProt P31994 43-217, limits assumed)
T3 construct: also called FcgRIIb; hFcgRIIb
T3 sequence: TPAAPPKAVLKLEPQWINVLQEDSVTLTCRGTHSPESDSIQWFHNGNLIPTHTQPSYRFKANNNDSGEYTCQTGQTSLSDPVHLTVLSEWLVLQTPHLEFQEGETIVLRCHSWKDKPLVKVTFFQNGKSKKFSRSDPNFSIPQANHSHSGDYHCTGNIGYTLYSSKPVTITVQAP

T4: human FcγRIIa(H) (human, UniProt P12318 36-217)
T4 construct: also called FcgRIIaH; FcγRIIa type H
T4 sequence: T1 chain with R133H

T5: human FcγRIIb (human, UniProt P31994 43-217, limits assumed)
T5 construct: also called FcgRIIb
T5 sequence: T3 sequence

T6: human FcγRIIa(R) (human, UniProt P12318 36-217)
T6 construct: also called FcgRIIaR; FcγRIIa type R
T6 chain: T1 chain

B1: GpH7-B3 P329K/GpL16-k0 (antibody, human IgG1)
heavy: not shown
light: DIVMTQSPLSLPVTPGEPASISCQASESLVHSNRNTYLHWYLQKPGQSPQLLIYKVSNRFSGVPDRFSGSGSGTDFTLKISRVEAEDVGVYYCSQNTHVPPTFGQGTKVEIE
notes: B3 variant; copies: 2 + 2
B2: GpH7-B3 A327F/GpL16-k0 (antibody, human IgG1)
heavy: not shown
light: B1 light
notes: B3 variant; copies: 2 + 2
B3: GpH7-B3 A327K/GpL16-k0 (antibody, human IgG1)
heavy: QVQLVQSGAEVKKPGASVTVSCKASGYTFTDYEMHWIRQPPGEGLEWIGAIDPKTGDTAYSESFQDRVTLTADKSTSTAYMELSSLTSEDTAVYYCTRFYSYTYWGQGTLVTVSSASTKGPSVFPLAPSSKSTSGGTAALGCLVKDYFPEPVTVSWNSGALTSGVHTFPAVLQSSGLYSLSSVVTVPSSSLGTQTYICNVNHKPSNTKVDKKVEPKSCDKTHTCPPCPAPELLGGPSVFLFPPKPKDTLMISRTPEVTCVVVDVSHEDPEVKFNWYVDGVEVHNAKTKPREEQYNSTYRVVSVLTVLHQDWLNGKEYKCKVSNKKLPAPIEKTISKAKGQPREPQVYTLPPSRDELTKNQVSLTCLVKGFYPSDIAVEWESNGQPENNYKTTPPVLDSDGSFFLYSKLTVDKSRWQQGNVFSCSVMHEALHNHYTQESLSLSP
light: B1 light
notes: B3 variant; copies: 2 + 2
B4: GpH7-B3 N325I/GpL16-k0 (antibody, human IgG1)
heavy: not shown
light: B1 light
notes: B3 variant; copies: 2 + 2
B5: GpH7-B3 S298W/GpL16-k0 (antibody, human IgG1)
heavy: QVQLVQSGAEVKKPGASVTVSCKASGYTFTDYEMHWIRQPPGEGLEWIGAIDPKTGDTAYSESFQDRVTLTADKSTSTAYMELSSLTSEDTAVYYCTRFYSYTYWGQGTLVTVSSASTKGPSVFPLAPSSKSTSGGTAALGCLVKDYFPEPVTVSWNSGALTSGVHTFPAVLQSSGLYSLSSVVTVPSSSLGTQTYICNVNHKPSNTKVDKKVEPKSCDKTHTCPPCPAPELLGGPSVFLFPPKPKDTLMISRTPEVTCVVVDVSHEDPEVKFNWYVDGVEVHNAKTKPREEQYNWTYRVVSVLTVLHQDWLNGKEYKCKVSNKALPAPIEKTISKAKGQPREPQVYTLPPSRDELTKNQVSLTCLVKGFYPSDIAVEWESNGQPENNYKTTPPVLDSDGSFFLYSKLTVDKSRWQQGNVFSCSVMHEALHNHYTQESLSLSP
light: B1 light
notes: B3 variant; copies: 2 + 2
B6: GpH7-B3 A327H/GpL16-k0 (antibody, human IgG1)
heavy: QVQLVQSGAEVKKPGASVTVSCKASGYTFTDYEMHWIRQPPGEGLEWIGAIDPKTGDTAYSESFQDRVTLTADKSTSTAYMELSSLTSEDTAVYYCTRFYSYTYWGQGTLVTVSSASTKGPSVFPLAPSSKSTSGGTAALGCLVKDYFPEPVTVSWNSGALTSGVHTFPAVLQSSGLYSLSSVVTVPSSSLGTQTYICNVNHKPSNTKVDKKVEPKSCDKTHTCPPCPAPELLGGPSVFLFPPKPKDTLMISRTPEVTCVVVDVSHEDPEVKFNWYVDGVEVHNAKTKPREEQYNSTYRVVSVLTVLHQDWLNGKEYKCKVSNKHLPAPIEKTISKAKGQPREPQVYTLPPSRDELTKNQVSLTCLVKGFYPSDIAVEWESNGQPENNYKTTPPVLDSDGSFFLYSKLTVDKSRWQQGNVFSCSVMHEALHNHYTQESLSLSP
light: B1 light
notes: B3 variant; copies: 2 + 2
B7: GpH7-B3 A327I/GpL16-k0 (antibody, human IgG1)
heavy: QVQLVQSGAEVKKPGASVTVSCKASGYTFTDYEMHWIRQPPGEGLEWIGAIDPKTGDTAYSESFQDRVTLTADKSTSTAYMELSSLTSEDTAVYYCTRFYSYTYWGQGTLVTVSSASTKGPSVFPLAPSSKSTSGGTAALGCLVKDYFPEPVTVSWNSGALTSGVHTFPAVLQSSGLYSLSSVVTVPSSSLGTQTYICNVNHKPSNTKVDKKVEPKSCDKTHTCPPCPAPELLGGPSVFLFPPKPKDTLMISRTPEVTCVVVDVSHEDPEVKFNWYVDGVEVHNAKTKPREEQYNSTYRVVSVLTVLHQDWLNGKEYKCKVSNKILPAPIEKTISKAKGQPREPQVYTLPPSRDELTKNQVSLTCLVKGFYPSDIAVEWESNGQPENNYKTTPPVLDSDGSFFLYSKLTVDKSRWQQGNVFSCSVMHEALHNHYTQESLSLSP
light: B1 light
notes: B3 variant; copies: 2 + 2
B8: GpH7-B3 variant S267H/GpL16-k0 (antibody, human IgG1)
heavy: not shown
light: B1 light
notes: copies: 2 + 2
B9: GpH7-B3 variant G237K/GpL16-k0 (antibody, human IgG1)
heavy: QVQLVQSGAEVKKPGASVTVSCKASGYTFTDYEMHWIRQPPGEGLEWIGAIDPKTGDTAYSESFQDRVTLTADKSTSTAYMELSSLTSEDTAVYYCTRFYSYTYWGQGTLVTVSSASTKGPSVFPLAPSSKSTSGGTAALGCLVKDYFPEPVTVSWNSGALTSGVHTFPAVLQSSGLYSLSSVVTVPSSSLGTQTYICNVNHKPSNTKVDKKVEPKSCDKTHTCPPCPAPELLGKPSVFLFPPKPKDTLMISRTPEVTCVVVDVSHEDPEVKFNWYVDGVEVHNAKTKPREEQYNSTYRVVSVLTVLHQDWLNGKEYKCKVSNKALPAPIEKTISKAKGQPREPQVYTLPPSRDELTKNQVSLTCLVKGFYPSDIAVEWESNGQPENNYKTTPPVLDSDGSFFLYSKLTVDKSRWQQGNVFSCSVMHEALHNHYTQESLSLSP
light: B1 light
notes: copies: 2 + 2
B10: GpH7-B3 variant V266D/GpL16-k0 (antibody, human IgG1)
heavy: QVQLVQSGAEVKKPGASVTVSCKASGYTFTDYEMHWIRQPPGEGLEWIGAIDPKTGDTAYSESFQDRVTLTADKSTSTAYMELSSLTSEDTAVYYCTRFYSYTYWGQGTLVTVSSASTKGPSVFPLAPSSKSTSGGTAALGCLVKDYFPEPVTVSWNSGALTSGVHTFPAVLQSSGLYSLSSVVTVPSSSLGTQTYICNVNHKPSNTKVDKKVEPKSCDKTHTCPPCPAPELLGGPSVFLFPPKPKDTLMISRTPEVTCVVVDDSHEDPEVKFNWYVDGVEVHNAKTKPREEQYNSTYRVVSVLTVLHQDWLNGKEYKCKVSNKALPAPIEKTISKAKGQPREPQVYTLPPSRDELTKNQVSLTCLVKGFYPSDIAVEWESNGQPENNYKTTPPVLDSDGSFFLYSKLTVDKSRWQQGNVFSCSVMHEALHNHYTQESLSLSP
light: B1 light
notes: copies: 2 + 2
B11: GpH7-B3 variant S267Y/GpL16-k0 (antibody, human IgG1)
heavy: not shown
light: B1 light
notes: copies: 2 + 2
B12: GpH7-B3 variant V266A/GpL16-k0 (antibody, human IgG1)
heavy: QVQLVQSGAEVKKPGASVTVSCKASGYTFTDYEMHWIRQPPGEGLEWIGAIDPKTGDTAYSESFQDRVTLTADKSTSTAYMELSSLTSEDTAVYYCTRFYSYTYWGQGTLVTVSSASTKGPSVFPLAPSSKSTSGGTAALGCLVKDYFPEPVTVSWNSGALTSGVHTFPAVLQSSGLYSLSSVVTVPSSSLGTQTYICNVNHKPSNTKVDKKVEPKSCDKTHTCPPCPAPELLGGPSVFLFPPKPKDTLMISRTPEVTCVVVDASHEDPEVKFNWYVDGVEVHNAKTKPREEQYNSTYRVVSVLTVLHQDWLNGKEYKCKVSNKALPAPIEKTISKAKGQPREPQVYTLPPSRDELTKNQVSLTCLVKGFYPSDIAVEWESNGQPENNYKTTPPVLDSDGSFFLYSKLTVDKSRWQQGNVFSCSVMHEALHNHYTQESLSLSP
light: B1 light
notes: copies: 2 + 2
B13: GpH7-B3 variant V266G/GpL16-k0 (antibody, human IgG1)
heavy: not shown
light: B1 light
notes: copies: 2 + 2
B14: GpH7-B3 variant V266T/GpL16-k0 (antibody, human IgG1)
heavy: not shown
light: B1 light
notes: copies: 2 + 2
B15: GpH7-B3 variant V266Y/GpL16-k0 (antibody, human IgG1)
heavy: not shown
light: B1 light
notes: copies: 2 + 2
B16: GpH7-B3 variant V266N/GpL16-k0 (antibody, human IgG1)
heavy: not shown
light: B1 light
notes: copies: 2 + 2
B17: GpH7-B3 variant V266R/GpL16-k0 (antibody, human IgG1)
heavy: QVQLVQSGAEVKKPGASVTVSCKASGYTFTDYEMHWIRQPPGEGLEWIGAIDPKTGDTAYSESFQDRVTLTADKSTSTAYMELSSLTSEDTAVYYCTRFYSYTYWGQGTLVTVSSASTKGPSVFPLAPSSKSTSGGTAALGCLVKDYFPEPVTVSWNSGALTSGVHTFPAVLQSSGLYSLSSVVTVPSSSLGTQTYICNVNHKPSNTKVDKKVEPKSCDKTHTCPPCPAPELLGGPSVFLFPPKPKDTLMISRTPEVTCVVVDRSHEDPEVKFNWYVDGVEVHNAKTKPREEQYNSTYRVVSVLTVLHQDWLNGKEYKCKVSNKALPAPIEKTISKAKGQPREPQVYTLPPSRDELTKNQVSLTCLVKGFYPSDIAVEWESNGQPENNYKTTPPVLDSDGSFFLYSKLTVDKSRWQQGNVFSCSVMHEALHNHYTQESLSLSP
light: B1 light
notes: copies: 2 + 2
B18: GpH7-B3 variant V266Q/GpL16-k0 (antibody, human IgG1)
heavy: not shown
light: B1 light
notes: copies: 2 + 2
B19: GpH7-B3 variant S267R/GpL16-k0 (antibody, human IgG1)
heavy: not shown
light: B1 light
notes: copies: 2 + 2
B20: GpH7-B3 variant V266H/GpL16-k0 (antibody, human IgG1)
heavy: not shown
light: B1 light
notes: copies: 2 + 2
B21: GpH7-B3 variant S267K/GpL16-k0 (antibody, human IgG1)
heavy: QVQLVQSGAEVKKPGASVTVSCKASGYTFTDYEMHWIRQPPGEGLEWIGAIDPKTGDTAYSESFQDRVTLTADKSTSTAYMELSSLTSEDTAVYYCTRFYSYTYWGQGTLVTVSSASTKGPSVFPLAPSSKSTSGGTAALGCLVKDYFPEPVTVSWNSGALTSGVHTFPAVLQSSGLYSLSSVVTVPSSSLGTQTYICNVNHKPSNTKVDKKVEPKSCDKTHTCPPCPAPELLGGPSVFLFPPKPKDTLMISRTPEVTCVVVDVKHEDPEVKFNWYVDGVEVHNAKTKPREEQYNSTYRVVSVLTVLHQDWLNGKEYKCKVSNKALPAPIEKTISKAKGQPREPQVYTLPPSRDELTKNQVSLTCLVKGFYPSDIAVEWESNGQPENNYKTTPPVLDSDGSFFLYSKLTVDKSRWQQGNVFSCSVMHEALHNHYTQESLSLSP
light: B1 light
notes: copies: 2 + 2
B22: GpH7-B3 variant S267P/GpL16-k0 (antibody, human IgG1)
heavy: not shown
light: B1 light
notes: copies: 2 + 2
B23: GpH7-B3 variant S267W/GpL16-k0 (antibody, human IgG1)
heavy: not shown
light: B1 light
notes: copies: 2 + 2
B24: GpH7-B3 variant V2668/GpL16-k0 (antibody, human IgG1)
heavy: not shown
light: B1 light
notes: copies: 2 + 2
B25: GpH7-B3 variant V266W/GpL16-k0 (antibody, human IgG1)
heavy: not shown
light: B1 light
notes: copies: 2 + 2
B26: GpH7-B3 variant V266E/GpL16-k0 (antibody, human IgG1)
heavy: not shown
light: B1 light
notes: copies: 2 + 2
B27: GpH7-B3 variant V266P/GpL16-k0 (antibody, human IgG1)
heavy: not shown
light: B1 light
notes: copies: 2 + 2
B28: GpH7-B3 variant V266K/GpL16-k0 (antibody, human IgG1)
heavy: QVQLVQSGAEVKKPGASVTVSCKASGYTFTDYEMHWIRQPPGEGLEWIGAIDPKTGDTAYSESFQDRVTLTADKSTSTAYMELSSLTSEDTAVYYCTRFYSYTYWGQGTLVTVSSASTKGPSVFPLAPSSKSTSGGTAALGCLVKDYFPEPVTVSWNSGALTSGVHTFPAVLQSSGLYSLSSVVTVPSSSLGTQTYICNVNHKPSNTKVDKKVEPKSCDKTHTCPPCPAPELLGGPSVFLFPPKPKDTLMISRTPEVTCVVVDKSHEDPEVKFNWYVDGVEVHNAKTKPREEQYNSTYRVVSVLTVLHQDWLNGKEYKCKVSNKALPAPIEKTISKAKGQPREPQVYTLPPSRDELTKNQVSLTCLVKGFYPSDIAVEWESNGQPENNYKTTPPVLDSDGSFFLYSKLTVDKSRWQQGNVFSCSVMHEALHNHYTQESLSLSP
light: B1 light
notes: copies: 2 + 2

Molecular target: T1, human FcγRIIa(R)
Assay: SPR, captured antibody;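 also: antibody captured on a sensor chip, Fcγ receptor flowed over at 25 °C, receptor binding normalized to the captured antibody amount and expressed relative to the reference antibody ×100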

Binder	relative binding activity
B1	-2 % of GpH7-B3/GpL16-k0
B2	17 % of GpH7-B3/GpL16-k0
B3	-8 % of GpH7-B3/GpL16-k0
B4	76 % of GpH7-B3/GpL16-k0
B5	19 % of GpH7-B3/GpL16-k0
B6	32 % of GpH7-B3/GpL16-k0
B7	37 % of GpH7-B3/GpL16-k0

molecular target: T2, human FcγRIIa(H); assay: SPR, captured antibody;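 also: antibody captured on a sensor chip, Fcγ receptor flowed over at 25 °C, receptor binding normalized to the captured antibody amount and expressed relative to the reference antibody ×100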

Binder	relative binding activity
B1	-1 % of GpH7-B3/GpL16-k0
B2	37 % of GpH7-B3/GpL16-k0
B3	0 % of GpH7-B3/GpL16-k0
B4	8 % of GpH7-B3/GpL16-k0
B5	17 % of GpH7-B3/GpL16-k0
B6	23 % of GpH7-B3/GpL16-k0
B7	12 % of GpH7-B3/GpL16-k0

molecular target: T3, human FcγRIIb; assay: SPR, captured antibody;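 also: antibody captured on a sensor chip, Fcγ receptor flowed over at 25 °C, receptor binding normalized to the captured antibody amount and expressed relative to the reference antibody ×100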

Binder	relative binding activity
B1	-2 % of GpH7-B3/GpL16-k0
B2	22 % of GpH7-B3/GpL16-k0
B3	0 % of GpH7-B3/GpL16-k0
B6	35 % of GpH7-B3/GpL16-k0
B7	46 % of GpH7-B3/GpL16-k0

molecular target: T7, human FcγRIa (human, UniProt P12314 16-292, limits assumed); assay: SPR, captured antibody;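 also: antibody captured on a sensor chip, Fcγ receptor flowed over at 25 °C, receptor binding normalized to the captured antibody amount and expressed relative to the reference antibody ×100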
T7 construct: also called FcgRIa; hFcgRIa
T7 sequence (P12314 16-292 limits assumed): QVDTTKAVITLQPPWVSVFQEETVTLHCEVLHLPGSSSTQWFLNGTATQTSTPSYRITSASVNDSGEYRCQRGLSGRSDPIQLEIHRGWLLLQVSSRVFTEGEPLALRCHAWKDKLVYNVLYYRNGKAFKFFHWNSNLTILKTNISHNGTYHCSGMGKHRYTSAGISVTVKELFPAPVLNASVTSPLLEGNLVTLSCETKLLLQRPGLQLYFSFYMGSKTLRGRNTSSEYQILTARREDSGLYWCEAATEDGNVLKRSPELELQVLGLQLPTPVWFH

Binder	relative binding activity
B1	6 % of GpH7-B3/GpL16-k0
B2	95 % of GpH7-B3/GpL16-k0
B3	57 % of GpH7-B3/GpL16-k0
B4	94 % of GpH7-B3/GpL16-k0
B5	69 % of GpH7-B3/GpL16-k0
B6	93 % of GpH7-B3/GpL16-k0
B7	98 % of GpH7-B3/GpL16-k0

molecular target: T4, human FcγRIIa(H); assay: SPR (Biacore);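 also: antibody variants captured on sensor chip, Fcγ receptor flowed over at 25 °C, bound receptor normalized to amount of captured antibody, expressed relative to reference antibody set as 100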
Protocol: (§1) Interaction between each modified antibody and Fcγ receptor prepared in the manner described above was analyzed using the BIACORE™ T100 surface plasmon resonance system (GE Healthcare), BIACORE™ T200 surface plasmon resonance system (GE Healthcare), BIACORE™ A100 surface plasmon resonance system or BIACORE™ 4000 surface plasmon resonance system. HBS-EP+ (GE Healthcare) was used for the running buffer, and measurements were carried out at 25° C. The chips used were chips in which antigen peptides, Protein A (Thermo Scientific), Protein A/G (Thermo Scientific) or Protein L (ACTIGEN® protein (Alltech or BioVision) were immobilized on the Series S Sensor Chip CMS (GE Healthcare) or Series S Sensor Chip CM4 (GE Healthcare) by amine coupling, or chips in which preliminarily biotinylated antigen peptides were allowed to interact and then immobilized on the Series S Sensor Chip SA (certified) (GE Healthcare). The target antibodies were captured on these sensor chips, Fcγ receptor diluted with the running buffer was allowed to interact, followed by measurement of the amount of bound antibody. The amounts bound were compared between antibodies. However, since the amount of Fcγ receptor bound depends on the amount of captured antibody, the values used for comparison were first corrected by dividing the amount of Fcγ receptor bound by the captured amount of each antibody. Through reaction with 10 mM glycine-HCl at pH 1.5, the sensor chips were regenerated by washing off antibody captured on the sensor chips and used repeatedly.
(§2) Binding strength was evaluated according to the following method based on the results of analyzing the interaction with each FcγR. […] That value was then further multiplied by 100, and the resulting value was used as an indicator of relative binding activity to each FcγR.

Binder	relative binding activity
B8	3 % of GpH7-B3/GpL16-k0
B9	0 % of GpH7-B3/GpL16-k0
B10	2 % of GpH7-B3/GpL16-k0
B11	2 % of GpH7-B3/GpL16-k0
B12	41 % of GpH7-B3/GpL16-k0
B13	10 % of GpH7-B3/GpL16-k0
B14	18 % of GpH7-B3/GpL16-k0
B15	2 % of GpH7-B3/GpL16-k0
B16	32 % of GpH7-B3/GpL16-k0
B17	-1 % of GpH7-B3/GpL16-k0
B18	11 % of GpH7-B3/GpL16-k0
B19	-1 % of GpH7-B3/GpL16-k0
B20	2 % of GpH7-B3/GpL16-k0
B21	1 % of GpH7-B3/GpL16-k0
B22	2 % of GpH7-B3/GpL16-k0
B23	2 % of GpH7-B3/GpL16-k0
B24	5 % of GpH7-B3/GpL16-k0
B25	0 % of GpH7-B3/GpL16-k0
B26	0 % of GpH7-B3/GpL16-k0
B27	-1 % of GpH7-B3/GpL16-k0
B28	-1 % of GpH7-B3/GpL16-k0

molecular target: T8, human FcγRIIIa(F) (human, UniProt P08637 17-208, limits assumed); assay: SPR (Biacore);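 also: antibody variants captured on sensor chip, Fcγ receptor flowed over at 25 °C, bound receptor normalized to amount of captured antibody, expressed relative to reference antibody set as 100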
T8 construct: also called FcgRIIIaF; allotype F158
T8 sequence (P08637 other isoform, or with tags, fused parts or gaps limits assumed): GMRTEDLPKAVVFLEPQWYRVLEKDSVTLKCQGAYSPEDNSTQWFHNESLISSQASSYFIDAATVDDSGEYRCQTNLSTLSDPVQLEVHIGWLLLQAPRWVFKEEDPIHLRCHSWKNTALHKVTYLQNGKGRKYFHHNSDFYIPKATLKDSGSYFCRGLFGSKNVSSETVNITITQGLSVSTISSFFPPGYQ
Protocol: as §1, §2

Binder	relative binding activity
B8	1 % of GpH7-B3/GpL16-k0
B9	-1 % of GpH7-B3/GpL16-k0
B10	1 % of GpH7-B3/GpL16-k0
B11	1 % of GpH7-B3/GpL16-k0
B12	26 % of GpH7-B3/GpL16-k0
B13	3 % of GpH7-B3/GpL16-k0
B14	12 % of GpH7-B3/GpL16-k0
B15	0 % of GpH7-B3/GpL16-k0
B16	5 % of GpH7-B3/GpL16-k0
B17	-1 % of GpH7-B3/GpL16-k0
B18	3 % of GpH7-B3/GpL16-k0
B19	0 % of GpH7-B3/GpL16-k0
B20	0 % of GpH7-B3/GpL16-k0
B21	1 % of GpH7-B3/GpL16-k0
B22	0 % of GpH7-B3/GpL16-k0
B23	2 % of GpH7-B3/GpL16-k0
B24	3 % of GpH7-B3/GpL16-k0
B25	-1 % of GpH7-B3/GpL16-k0
B26	-1 % of GpH7-B3/GpL16-k0
B27	-1 % of GpH7-B3/GpL16-k0
B28	-1 % of GpH7-B3/GpL16-k0

molecular target: T9, human FcγRIa (human, UniProt P12314 16-292, limits assumed); assay: SPR (Biacore);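 also: antibody variants captured on sensor chip, Fcγ receptor flowed over at 25 °C, bound receptor normalized to amount of captured antibody, expressed relative to reference antibody set as 100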
T9 construct: also called FcgRIa; FcγRI (CD64)
T9 sequence (P12314 16-292 limits assumed): as the sequence (P12314 16-292 limits assumed) above
Protocol: as §1, §2

Binder	relative binding activity
B8	95 % of GpH7-B3/GpL16-k0
B9	2 % of GpH7-B3/GpL16-k0
B10	67 % of GpH7-B3/GpL16-k0
B11	96 % of GpH7-B3/GpL16-k0
B12	95 % of GpH7-B3/GpL16-k0
B13	86 % of GpH7-B3/GpL16-k0
B14	89 % of GpH7-B3/GpL16-k0
B15	75 % of GpH7-B3/GpL16-k0
B16	84 % of GpH7-B3/GpL16-k0
B17	5 % of GpH7-B3/GpL16-k0
B18	88 % of GpH7-B3/GpL16-k0
B19	78 % of GpH7-B3/GpL16-k0
B20	62 % of GpH7-B3/GpL16-k0
B21	68 % of GpH7-B3/GpL16-k0
B22	78 % of GpH7-B3/GpL16-k0
B23	97 % of GpH7-B3/GpL16-k0
B24	79 % of GpH7-B3/GpL16-k0
B25	78 % of GpH7-B3/GpL16-k0
B26	69 % of GpH7-B3/GpL16-k0
B27	1 % of GpH7-B3/GpL16-k0
B28	15 % of GpH7-B3/GpL16-k0

molecular target: T5, human FcγRIIb; assay: SPR (Biacore);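 also: antibody variants captured on sensor chip, Fcγ receptor flowed over at 25 °C, bound receptor normalized to amount of captured antibody, expressed relative to reference antibody set as 100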
Protocol: as §1, §2

Binder	relative binding activity
B8	42 % of GpH7-B3/GpL16-k0
B9	-1 % of GpH7-B3/GpL16-k0
B10	2 % of GpH7-B3/GpL16-k0
B11	14 % of GpH7-B3/GpL16-k0
B12	55 % of GpH7-B3/GpL16-k0
B13	22 % of GpH7-B3/GpL16-k0
B14	52 % of GpH7-B3/GpL16-k0
B15	15 % of GpH7-B3/GpL16-k0
B16	40 % of GpH7-B3/GpL16-k0
B17	-2 % of GpH7-B3/GpL16-k0
B18	34 % of GpH7-B3/GpL16-k0
B19	0 % of GpH7-B3/GpL16-k0
B20	14 % of GpH7-B3/GpL16-k0
B21	3 % of GpH7-B3/GpL16-k0
B22	5 % of GpH7-B3/GpL16-k0
B23	29 % of GpH7-B3/GpL16-k0
B24	18 % of GpH7-B3/GpL16-k0
B25	26 % of GpH7-B3/GpL16-k0
B26	0 % of GpH7-B3/GpL16-k0
B27	-3 % of GpH7-B3/GpL16-k0
B28	-1 % of GpH7-B3/GpL16-k0

Molecular target: T6, human FcγRIIa(R)
Assay: SPR (Biacore)
Protocol: as §1, §2

Binder	relative binding activity
B8	27 % of GpH7-B3/GpL16-k0
B9	0 % of GpH7-B3/GpL16-k0
B10	3 % of GpH7-B3/GpL16-k0
B11	10 % of GpH7-B3/GpL16-k0
B12	68 % of GpH7-B3/GpL16-k0
B13	27 % of GpH7-B3/GpL16-k0
B14	66 % of GpH7-B3/GpL16-k0
B15	18 % of GpH7-B3/GpL16-k0
B16	58 % of GpH7-B3/GpL16-k0
B17	-6 % of GpH7-B3/GpL16-k0
B18	47 % of GpH7-B3/GpL16-k0
B19	-6 % of GpH7-B3/GpL16-k0
B20	22 % of GpH7-B3/GpL16-k0
B21	1 % of GpH7-B3/GpL16-k0
B22	0 % of GpH7-B3/GpL16-k0
B23	26 % of GpH7-B3/GpL16-k0
B24	26 % of GpH7-B3/GpL16-k0
B25	37 % of GpH7-B3/GpL16-k0
B26	-3 % of GpH7-B3/GpL16-k0
B27	-5 % of GpH7-B3/GpL16-k0
B28	0 % of GpH7-B3/GpL16-k0
